Experimental data: US20220081480A1 (Merck KGaA, published 2022)
“And” between values parts separate entries of the source, which are not always exact repeats. Equal entries are not always repeated. Where two headings read alike, the source gives them in different places.

How the values were obtained:
[1] = biological target: T1, human TIM-3 on huTIM-3-CHO-S cells (human, UniProt Q8TDQ0 22-202); test: FACS on CHO-S-hTIM-3 cells
T1 construct: Membrane-anchored human TIM-3 ECD (NP_116171) stably expressed on CHO-S cells; also called CHO-S-hTIM3; CHO-S-hTIM-3; not shown: membrane anchor of the expression vector, not described

[2] = biological target: T1, human TIM-3 on huTIM-3-CHO-S cells; test: flow cytometry on CHO-S-hTIM3 cells
cyno TIM-3-His6 [3] = biological target: T2, cyno TIM-3-His6 (cynomolgus monkey); test: ELISA, antigen coated
T2 construct: Made in HEK293 cells; not shown: 6-His tag
T2 chain: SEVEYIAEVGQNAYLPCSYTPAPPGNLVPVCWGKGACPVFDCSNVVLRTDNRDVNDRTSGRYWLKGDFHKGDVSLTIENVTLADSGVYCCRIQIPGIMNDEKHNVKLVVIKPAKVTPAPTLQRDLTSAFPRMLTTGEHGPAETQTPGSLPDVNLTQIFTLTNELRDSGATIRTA

[4] = biological target: T3, human TIM-3 ECD with 6-His tag (hu TIM-3-His6) (human, UniProt Q8TDQ0 22-200); test: ELISA, antigen coated
T3 construct: Novoprotein Cat# C356; the entry includes the His tag; also called hTIM3-His; human TIM3-His6

cyno TIM-3-muFc = biological target: T4, cyno TIM-3-muFc (cynomolgus monkey); test: ELISA, antigen coated
T4 construct: Made in HEK293 cells; also called cyno TIM3-mFc; not shown: murine Fc
T4 chain: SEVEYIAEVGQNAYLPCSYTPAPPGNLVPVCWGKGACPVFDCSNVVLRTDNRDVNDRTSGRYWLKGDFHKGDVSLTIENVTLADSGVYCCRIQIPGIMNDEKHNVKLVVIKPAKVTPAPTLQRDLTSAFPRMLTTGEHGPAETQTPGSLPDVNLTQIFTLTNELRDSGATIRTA

[5] = biological target: T5, cyno TIM-3 on cynoTIM-3-Expi293F cells (cynomolgus monkey); test: flow cytometry on 293F-cynoTIM-3 cells
T5 construct: Membrane-anchored cyno TIM-3 ECD (XP_005558438) transiently expressed on Expi293F cells; not shown: membrane anchor of the expression vector, not described
T5 chain: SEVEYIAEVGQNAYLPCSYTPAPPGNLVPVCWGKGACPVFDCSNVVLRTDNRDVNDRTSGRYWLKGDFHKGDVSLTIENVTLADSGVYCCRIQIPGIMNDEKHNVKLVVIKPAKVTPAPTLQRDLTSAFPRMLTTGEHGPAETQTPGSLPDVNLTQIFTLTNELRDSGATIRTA

[6] = biological target: T1, human TIM-3 on huTIM-3-CHO-S cells; test: cell-based or functional assay
[7] = biological target: T3, human TIM-3 ECD with 6-His tag (hu …); test: SPR (Biacore), relative to 3903E11 (VH1.0, VL1.0)
cyno TIM-3-His6 [8] = biological target: T2, cyno TIM-3-His6; test: SPR (Biacore)
[9] = biological target: T3, human TIM-3 ECD with 6-His tag (hu …); test: SPR (Biacore)
cyno TIM-3-His6 [10] = biological target: T2, cyno TIM-3-His6; test: SPR, antibody captured, TIM-3 as analyte
[11] = biological target: T3, human TIM-3 ECD with 6-His tag (hu …); test: SPR, antibody captured, TIM-3 as analyte
[12] = biological target: T6, marmoset TIM-3 ECD with 6-His tag (marmoset TIM-3-His6) (marmoset); test: ELISA, antigen coated
T6 construct: Novoprotein Cat# CM64; the entry includes the His tag
T6 chain: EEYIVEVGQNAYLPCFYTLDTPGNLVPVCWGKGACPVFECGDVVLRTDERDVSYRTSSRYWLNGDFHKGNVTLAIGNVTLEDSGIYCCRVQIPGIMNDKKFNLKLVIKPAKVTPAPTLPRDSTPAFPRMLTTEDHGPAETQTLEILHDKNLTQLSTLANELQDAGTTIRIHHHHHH

cyno TIM-3-His6 [13] = biological target: T2, cyno TIM-3-His6; test: ELISA, antigen coated
[14] = biological target: T3, human TIM-3 ECD with 6-His tag (hu …); test: ELISA, antigen coated; remark: listed apart in the source
FCγRI (CD64) [15] = biological target: T7, FCγRI (CD64) (UniProt P12314 16-288); test: BLI (Octet), antibody on FAB2G tips, kinetic fit
T7 construct: Bought

[16] = biological target: T8, human TIM-3 ECD fused to human IgG1 Fc domain (huTIM-3-Fc) (human, UniProt Q8TDQ0 22-202); test: competition ELISA: huTIM-3-Fc-biotin (1 µg/ml) binding to coated galectin-9
T8 construct: extracellular domain; Bought; Biotinylated (Sulfo-NHS-LC-Biotin) in the galectin-9 ELISAs; also called Human-TIM3-biotin; huTIM-3-Fc-biotin; not shown: human IgG1 Fc domain

FCγRIIa (CD32a)_H131 [17] = biological target: T9, FCγRIIa (CD32a)_H131 (UniProt P12318 36-218, limits assumed); test: BLI (Octet), steady state
T9 construct: Bought
T9 sequence (looked up): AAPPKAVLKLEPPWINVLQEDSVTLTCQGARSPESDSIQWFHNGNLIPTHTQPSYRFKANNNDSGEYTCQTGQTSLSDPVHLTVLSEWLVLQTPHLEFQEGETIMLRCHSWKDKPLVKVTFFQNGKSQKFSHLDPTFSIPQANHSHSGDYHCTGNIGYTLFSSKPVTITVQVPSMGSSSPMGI

FCγRIIIa (CD16a)_V158 [18] = biological target: T10, FCγRIIIa (CD16a)_V158 (UniProt P08637 17-208); test: BLI (Octet), steady state
T10 construct: Bought

FcRn = FcRn (UniProt P55899 24-297; P61769 21-119, limits assumed); test: BLI (Octet), steady state
[19] = biological target: T6, marmoset TIM-3 ECD with 6-His tag …; test: SPR, antibody captured, TIM-3 as analyte
cyno TIM-3-His6 [20] = biological target: T2, cyno TIM-3-His6; test: SPR, antibody captured, TIM-3 as analyte
[21] = biological target: T3, human TIM-3 ECD with 6-His tag (hu …); test: SPR, antibody captured, TIM-3 as analyte; remark: listed apart in the source
[22] = biological target: T1, human TIM-3 on huTIM-3-CHO-S cells; test: flow cytometry on CHO-S-hTIM-3 cells
[23] = biological target: T11, human TIM-3 on primary human blood cells (CD14+ monocytes in whole blood; PBMCs) (human, UniProt Q8TDQ0 22-301); test: flow cytometry on fresh human whole blood, CD14+ monocytes; unoccupied TIM-3 detected with the competing anti-TIM-3 (2E2)-APC; donor KP46233
T11 construct: whole, on cells; Endogenous receptor on donor cells; also called TIM-3 on CD14+ monocytes

[24] = biological target: T11, human TIM-3 on primary human blood …; test: target occupancy on CD14+ monocytes in human whole blood, flow cytometry; free TIM-3 detected with competing anti-TIM-3(2E2)-APC
[25] = biological target: T11, human TIM-3 on primary human blood …; test: flow cytometry on fresh human whole blood, CD14+ monocytes; unoccupied TIM-3 detected with the competing anti-TIM-3 (2E2)-APC; donors KP46231, KP46315, KP46318 (not separated)
[26] = biological target: T12, wild-type TIM-3 (hu TIM-3), HEK-expressed (human, UniProt Q8TDQ0 22-202, limits assumed); test: SPR
T12 construct: Soluble protein of the mutagenesis study

[27] = biological target: T12, wild-type TIM-3 (hu TIM-3), …; test: SPR; remark: listed apart in the source
[28] = biological target: T8, human TIM-3 ECD fused to human IgG1 Fc …; test: ELISA: plate-bound rhTIM-3-Fc pre-incubated with antibody, His-tagged CEACAM1 detected
FCγRI (CD64) [29] = biological target: T7, FCγRI (CD64); test: BLI (Octet), antibody on FAB2G tips
FCγRIIa (CD32a)_H131 [30] = biological target: T9, FCγRIIa (CD32a)_H131; test: BLI (Octet), antibody on FAB2G tips
FCγRIIIa (CD16a)_V158 [31] = biological target: T10, FCγRIIIa (CD16a)_V158; test: BLI (Octet), antibody on FAB2G tips
[32] = biological target: T8, human TIM-3 ECD fused to human IgG1 Fc …; test: competition ELISA: huTIM-3-Fc-biotin (0.5 µg/ml) binding to coated galectin-9

B1: Parental Antibody 3903E11 (VL1.0, VH1.0) (antibody, human IgG1, lambda)
heavy: not shown
light: SYELTQPRSVSGSPGQSVTISCTGTSSDVGGYNYVSWYQQHPGKAPKLMIFDVSKRPSGVPDRFSGSKSGNTASLTISGLQAEDEADYYCSSYADSVVFGGGTKVTVLGQPKAAPSVTLFPPSSEELQANKATLVCLISDFYPGAVTVAWKADSSPVKAGVETTTPSKQSNNKYAASSYLSLTPEQWKSHKSYSCQVTHEGSTVEKTVAPTECS
notes: Human IgG1 (IgG1m3), lambda light chain; also called 3903E11 (VH1.0, VL1.0)
MFI at 0.1 µg/ml [1]: 137 MFI | MFI at 1 µg/ml [1]: 1390 MFI | MFI at 10 µg/ml [1]: 1490 MFI | EC50 [2]: 0.9 nM | EC50 (cyno TIM-3-His6 [3]): 0.01 nM | EC50 [4]: 0.01 nM | EC50 (cyno TIM-3-muFc): 0.01 nM | EC50 [5]: 2 nM | ADCC (51Cr release), Donor 1, EC50 [6]: 0.24 nM | ADCC (51Cr release), Donor 2, EC50 [6]: 0.11 nM | Human TIM3 KD Ratio to Parent [7]: 1 | Kd (cyno TIM-3-His6 [8]): 6.9 nM | Kd [9]: 3.5 nM | Kd (cyno TIM-3-His6 [10]): 12 nM | Kd [11]: 3.8 nM

B2: 3903E11 (VL1.3,VH1.2) IgG1 (antibody)
heavy: not shown
light: QSALTQPRSVSGSPGQSVTISCTGTSSDVGGYNYVSWYQQHPGKAPKLMIYDVSKRPSGVPDRFSGSKSGNTASLTISGLQAEDEADYYCSSYADSVVFGGGTKVTVLGQPKAAPSVTLFPPSSEELQANKATLVCLISDFYPGAVTVAWKADSSPVKAGVETTTPSKQSNNKYAASSYLSLTPEQWKSHKSYSCQVTHEGSTVEKTVAPTECS
notes: also called 3903E11 (VH1.2, VL1.3); anti-TIM3-3903E11(VL1.3, VH1.2)-IgG1; copies: 2 + 2
EC50 [12]: 0.01 nM | EC50 (cyno TIM-3-His6 [13]): 0.02 nM | EC50 [14]: 0.01 nM | MFI at 0.1 µg/ml [1]: 140 MFI | MFI at 1 µg/ml [1]: 1310 MFI | MFI at 10 µg/ml [1]: 1910 MFI | Kd (FCγRI (CD64) [15]): 1.7 nM | IC50 [16]: 2.4 nM | Kd (FCγRIIa (CD32a)_H131 [17]): 630 nM | Kd (FCγRIIIa (CD16a)_V158 [18]): 100 nM | Kd (FcRn): 805 nM | Kd (cyno TIM-3-His6 [8]): 5.3 nM | Kd [9]: 1.6 nM | Kd [19]: 11 nM | Kd (cyno TIM-3-His6 [20]): 14 nM | Kd [21]: 2.4 nM | EC50 [22]: 2.6 nM

B3: anti-TIM-3 (A16-019-1) (antibody)
heavy: not shown
light: QSALTQPRSVSGSPGQSVTISCTGTSSDVGGYNYVSWYQQHPGKAPKLMIYDVSKRPSGVPDRFSGSKSGNTASLTISGLQAEDEADYYCSSYADSVVFGGGTKVTVLGQPKAAPSVTLFPPSSEELQANKATLVCLISDFYPGAVTVAWKADSSPVKAGVETTTPSKQSNNKYAASSYLSLTPEQWKSHKSYSCQVTHEGSTVEKTVAPTECS
notes: Said to be identical to M6903 but produced in Expi293F, not CHOK1SV, cells
EC50 (read off the curve) [23]: ~40 ng/mL | EC50 [24]: 0.111 µg/mL | EC50 (read off the curve) [25]: ~70 ng/mL

B4: anti-TIM-3-3903E11(VL1.3,VH1.2)-IgG2h(FN-AQ,322A)-delK (antibody)
heavy: not shown
light: QSALTQPRSVSGSPGQSVTISCTGTSSDVGGYNYVSWYQQHPGKAPKLMIYDVSKRPSGVPDRFSGSKSGNTASLTISGLQAEDEADYYCSSYADSVVFGGGTKVTVLGQPKAAPSVTLFPPSSEELQANKATLVCLISDFYPGAVTVAWKADSSPVKAGVETTTPSKQSNNKYAASSYLSLTPEQWKSHKSYSCQVTHEGSTVEKTVAPTECS
notes: Effector-negative engineered IgG2 with IgG1 hinge (C220S), F296A, N297Q, K322A, C-terminal Lys deleted; lambda light chain; also called M6903; copies: 2 + 2
Kd [26]: 6.2 nM | Kd [27]: 5.7 nM | IC50 [28]: 0.353 nM and 0.053 µg/mL | Kd (FcRn): 850 nM | binding result (FCγRI (CD64) [29]): no binding (tested: 100 nM to 1.56 nM) | binding result (FCγRIIa (CD32a)_H131 [30]): no binding (tested: 4000 nM to 62.5 nM) | binding result (FCγRIIIa (CD16a)_V158 [31]): no binding (tested: 4000 nM to 62.5 nM) | IC50 [32]: 7.46 nM
